Data from article PMC12005789, “Geniposidic Acid Targeting FXR “S332 and H447” Mediated Conformational Change to Upregulate CYPs and miR‐19a‐3p to Ameliorate Drug‐Induced Liver Injury” (Advanced Science, 2025).
Ends that are not written are not given here.

T1: Farnesoid X receptor (FXR) (Homo sapiens, UniProt Q96RI1)
T1 construct: gene NR1H4; human FXR LBD (residues 248–486), N-terminal 8×His-Tag
T1 sequence (Q96RI1 248-486): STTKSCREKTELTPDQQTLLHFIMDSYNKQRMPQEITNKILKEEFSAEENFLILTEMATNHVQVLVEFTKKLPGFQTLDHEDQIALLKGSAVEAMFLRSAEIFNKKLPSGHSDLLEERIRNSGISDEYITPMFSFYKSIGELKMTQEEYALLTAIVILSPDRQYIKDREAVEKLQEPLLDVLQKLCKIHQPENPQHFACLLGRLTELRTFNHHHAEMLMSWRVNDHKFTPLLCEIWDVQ

T2: human FXR LBD wild-type recombinant protein (human)
T2 chain: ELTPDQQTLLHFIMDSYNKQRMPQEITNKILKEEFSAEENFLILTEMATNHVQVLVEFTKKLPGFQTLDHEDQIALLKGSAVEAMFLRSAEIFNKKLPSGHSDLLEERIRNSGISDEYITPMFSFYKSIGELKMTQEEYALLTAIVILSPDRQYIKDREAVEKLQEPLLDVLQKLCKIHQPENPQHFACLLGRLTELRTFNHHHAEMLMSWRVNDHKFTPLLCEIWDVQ

T3: human FXR LBD H447A recombinant protein (human)
T3 chain: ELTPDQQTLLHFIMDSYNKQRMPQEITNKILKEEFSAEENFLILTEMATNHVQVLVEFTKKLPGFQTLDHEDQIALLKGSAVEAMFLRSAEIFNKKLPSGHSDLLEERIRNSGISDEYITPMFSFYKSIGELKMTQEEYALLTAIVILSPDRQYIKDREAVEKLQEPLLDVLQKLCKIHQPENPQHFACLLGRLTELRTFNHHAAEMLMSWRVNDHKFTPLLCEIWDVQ


Columns and labels:
[1] = biological target: T1, Farnesoid X receptor (FXR); test: SPR (Biacore T200, CM5 chip with FXR LBD WT); supported by DSF, CETSA and AlphaScreen; format: binding
[2] = biological target: T2, human FXR LBD wild-type recombinant …; test: SPR; with GW4064
[3] = biological target: T2, human FXR LBD wild-type recombinant …; test: SPR; with GPA
[4] = biological target: T3, human FXR LBD H447A recombinant protein; test: SPR; with GPA

| Kd [1] [nM] | Kd [2] [nM] | Kd [3] [nM] | Kd [4] [nM] | Molecule |
| --- | --- | --- | --- | --- |
| 390 | – | – | – | O=C(O)C1=CO[C@@H](O[C@@H]2O[C@H](CO)[C@@H](O)[C@H](O)[C@H]2O)[C@@H]2C(CO)=CC[C@H]12 [GPA, Geniposidic acid] |
| – | 185 | 533 | 355000 | QEPVSPKKKENALLRYLLDKDDTKD (also: biotinylated (position not given here)) [SRC2-3 biotinylated cofactor peptide] |
